Values of other authors in publication PMC8246649 (Biochemistry, 2021).

How the values were obtained:
UNC119A = UNC119A (Homo sapiens, UniProt Q13432); details: read-out: Reported Kd of release factor to UNC119A
UNC119B = UNC119B (Homo sapiens, UniProt A6NIH7); details: read-out: Reported Kd of release factor to UNC119B
UNC119B, sequence (A6NIH7 whole entry): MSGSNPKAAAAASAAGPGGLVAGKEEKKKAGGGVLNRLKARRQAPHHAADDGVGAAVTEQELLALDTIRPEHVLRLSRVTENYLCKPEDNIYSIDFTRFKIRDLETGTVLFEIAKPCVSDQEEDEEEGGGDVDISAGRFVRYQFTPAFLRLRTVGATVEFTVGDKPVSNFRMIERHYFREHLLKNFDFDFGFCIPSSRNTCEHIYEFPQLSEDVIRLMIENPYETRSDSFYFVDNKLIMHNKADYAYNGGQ

Kd (UNC119A) [nM]	Kd (UNC119B) [nM]	Substance
159	216	ARL2: ADP ribosylation factor-like protein 2, release factor of UNC119 cargo
	33	ARL3: ADP ribosylation factor-like protein 3, release factor of UNC119 cargo
